Test results from the supplement of paper PMC9170038.

Test system: K4 kissing-loop RNA reporter
Assay: apparent KD of K4 kissing-loop reporter; higher = weaker reporter binding
Conditions: Eterna round: R107
Experimental: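 RNA-MaP round R107: designed RNA switches with theophylline, tryptophan, arginine or FMN aptamers are transcribed on-chip within common flanks. They are titrated with a labelled K4 kissing-loop RNA reporter in RNA-MaP buffer (100 mM Tris pH 7.5, 80 mM KCl, 4 mM MgCl2), without ligand or with the indicated ligand. Median apparent KD per design.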

[1] = input ligand: theophylline 20 uM
[2] = input ligand: tryptophan 2.4 mM
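Further: bound reporter read as fluorescence of individual clusters on recovered sequencing chips by microscopy, with normalized cluster intensities fitted with a binding model.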

Sequence | apparent KD of K4 kissing-loop reporter (input ligand: FMN 200 uM) [nM] | apparent KD of K4 kissing-loop reporter (input ligand: arginine 13.2 mM) [nM] | apparent KD of K4 kissing-loop reporter (input ligand: none) [nM] | apparent KD of K4 kissing-loop reporter [1] [nM] | apparent KD of K4 kissing-loop reporter [2] [nM]
CAUACGCAUGGAGGAUAUGAGAUUUCUCAUAUUAUUUAAUAUUCUCAGUGAUGUUGAGAAUUUAACUCAGAAGGCCAUGUGUAUG [Ex FMN B 5] | 316 | 149 | 156 | 154 | 152
AAUUUAGUGACGGCCGCCACUAUGGUGAUUUAUUUGUUUGAGUGAUGUUUUGAUGUUUGAUUUUGUAGGACCGGGUUAGGUGAUG [aaacmullin] | 355 | 293 | 364 | 354 | 279
GUCUCCGUCGAUGAUACCAGUCGAUGUACGUCAGGUACCCUUUGAGUGAUGUUCAGAUUAGACCCUUGGCAGCAUAUCGAGGCUC [theeternabot_exclusion_KL_Theo_B_24] | 370 | 452 | 514 | 444 | 303
AUCUUGUUUGGAGGAUAUUCUUUAUUUGACAUAACCUUCUAUAAGGUGCAGUGAUGUUGCAAUAUAGGAGAAGGUCGAGUGAGAU [Exclusion FMN B GF 18] | 190 | 160 | 188 | 202 | 177
UUGUUUGGUUGAGAGGUUGGGCGAAAUGAUACCAGUAUAUAAGAAUACCCUUGGCAGCAUAAGAAAGAUAUAGUGAUGUUGUAUA [SSTheophA.L] | 597 | 320 | 431 | 560 | 411
UGAUACCAGACGGCCGCCACUGGUGCAGUCAAAGACUGCUAAAACCAAAUCGUGGAGUGAUGUUCCAGGACCGGGUCUGGUAUCU [TrypBX 20 #SwitchBubble #Palindromic #StaticStem] | 451 | 423 | 452 | 462 | 674
AGGCGCUUAAGUCAGUGAUGUUGAUUAUAUCGAGGACCGGUACGGCCGCCACUCGGCUUUCAUCCGCCAUCGUAGUCCUAAAACC [theeternabot_sameState_KL_Trp_A_25] | 498 | 490 | 559 | 534 | 549
UGAUACCAGACGGCCGCCACUUCCGUAAGUCAAAGACUUACCAAGGGAAUCGUCCAGUGAUGUUGGAGGACCGGGUCUGGUAUCU [FiskerMod 6 - Jieux - Exclusion - Tryptophan B] | 960 | 744 | 1260 | 959 | 788
CUAUCCCGCCGUGUAUGUAGUAUACGGUGCCGAGGACCGGUACGGCCGCCACUCGAUAAGCUUUGUCGGAGUGAUGUUCCGACCG [Soleesen] | 277 | 181 | 213 | 263 | 265
AAGCAUUGGUCUGAUACCAGUUGAUGACGAAUACGUCAACUGGAGUGAUGUUCCUAAAACAACCCUUGGCAGCAGACCGAUGCAA [MAT - Same State Theophlline B - Mod of Eli - D2] | 761 | 704 | 835 | 750 | 838
AGCAGUGAUGUUGCUCAAUUUACAGGUGAUACCAGAGGUCAGUCUCUCCCUUGGCAGCACUUCAUACGAUGAUGUUUUAUCGGCC [theeternabot_sameState_KL_Theo_A_50] | 374 | 321 | 370 | 378 | 313
CCAGGUUGCCGCAACGACCUGGAUUUUAGGGAGGAUAUCCAGAGCAGGAGAAGGCCCAGUGAUGUUGGGCCUGUGGAGCCCAUAU [Ararensoza] | 274 | 149 | 176 | 120 | 151
AGGCGGCAAGAUUGAUUGGAAAGUAAUCGACGAGGACCGGUACGGCCGCCACUCGAACACCAGUGAUGUUGGUCUGGCUUAAGCC [Exclusion Tryptophan A GF 20] | 430 | 369 | 435 | 477 | 363
GCACUGAAGUGAUGUUUUUGUGCACGUUGAAAGGAUAUCUGCUUGUAGAGAAGGUUCUGUUUGUGCGGAGCGGGCGUUACCGGCA [theeternabot_exclusion_KL_FMN_A_32] | 307 | 269 | 310 | 285 | 308
UCCUAGGCUCGAAAGAGCCUAGGUAAGACUCAGGAUAUCUGGAAACAGAGAAGGGAGCUACUAGUGAUGUUAGGAAUUCCCAUUU | 116 | 94.7 | 89 | 76.2 | 85.1
CCGAGCCUGACGUAAGUCAGGCUCUGCGAGCGAGGACCGGUACGGCCGCCACUCGGUGCAGUGAUGUUGCAUGGCCGCAAGGCCG [#2 Exclusion - Tryptophan A Attempt #23 (HarryS)] | 293 | 274 | 235 | 235 | 351
UUACGGUCCUCGGCCGCCACUCAUAGUGAUGUUAUGCUGCCUGAAGGCACCGGACCUGGAUAUCAGAGGACCGGGAGGCCAUUCG [theeternabot_exclusion_KL_Trp_B_6] | 793 | 590 | 810 | 560 | 544
AGUAGUUGGACGGCCGCCACUAGAACAGCUUUGCCAAAGGCAGAGCACUAGAGUGAUGUUCUAGCUAGGACCGGGUCCAACUACA [Omei KL Tryp B SS A v1] | 902 | 306 | 54.2 | 118 | 1000
AAGGGCGAGGUAACGUGGAUAUCUCGUCGCAAGGAUAUCUGGAAACAGAGAAGGUGCUACAUUACCGGCAGUGAUGUUGCUGACC | 887 | 312 | 573 | 278 | 261
GGAGGAGAAUAUGAUACCAGCAGAGAGAGAGAGGAAGUAUAGUGAUGUUAUAUGAGAGAAUGCCCUUGGCAGCAUAAGAAGAAGG [SSTheophylB.A] | 150 | 105 | 136 | 123 | 105
UGACUGGACUGAAGGAGCGAGCGAGACAAAGUCUCGGAAAUUCAGUGAUGUUGAUAUAUAACUCAGGUAGGUCGCAGUCUAGUCU [ArgBS 6 #SwitchBubble #StaticStem] | 350 | 411 | 459 | 363 | 335

Sequence | apparent KD of K4 kissing-loop reporter (input ligand: FMN 200 uM) [nM] | apparent KD of K4 kissing-loop reporter (input ligand: arginine 13.2 mM) [nM] | apparent KD of K4 kissing-loop reporter (input ligand: none) [nM] | apparent KD of K4 kissing-loop reporter [1] [nM] | apparent KD of K4 kissing-loop reporter [2] [nM]
CGCCGCAAGGCGAGCGCUCCCACUCCGGAAGGAGCGCCCGUAAGGGCAGGUAGGUCGCCGGAGUGAUGUUCCGGUGGAGGGCUCG [#2 Exclusion - Arginine A Attempt #14 (Inspired by Omei)] | 226 | 224 | 469 | 33 | 184
AUUUAAUGUAUAGAUUAUAUACAUAAUUCAGAGGAUAUGCAUAGAAGCAGAAGGCUGGUUGCAGUGAUGUUGCUUUUUUAAUUUA [JR_SSFMNA_Sub008] | 30.9 | 125 | 76.7 | 185 | 63.8
UGACAUUGCUCAGAUACCAGACAAGAGGAUCACCCUUGUGCCAAAACGUACUAAAUAAAUGUCCCUUGGCAGCUGAGCAAUGUCU [TheoBX 13] | 82.5 | 42.1 | 45.9 | 77.4 | 58.6
UUUAUUAAGACGGCCGCCACUGAUUCAGAGUGAUGUUCUGAUAUUUUUUUAUAUAAUAAUAACAGCAGGACCGGGUCAAUUAUUA [JR_SSTryptoB_Sub013] | 225 | 237 | 233 | 272 | 192
UUAGUUGAAAGUGAUACCAGACAAGUUAAGAGAAGAAAUUAAGUUGGAGUGAUGUUCCAAGUCCCUUGGCAGCACAUUGUAAUUU [Same State Theophylline B GF12] | 101 | 211 | 129 | 256 | 126
CGCAGUGAUGUUGCUAUUAUUCUUGAUUAACGAGGACCGGUACGGCCGCCACUCGAUUUCUAUCUGAUCCAGUGUUUUGUUGAGU [#22 K4 Tryptophan A Exclusion] | 296 | 364 | 396 | 360 | 182
GCGGGCGGCUGAAGGAGCGGGCGGGCCCGAGUGAUGUUCGGGUGGGCCGUGAGGCCCGGAGCCCAGGUAGGUCGCGGUUCCGUCC [#2 Same State - Arginine B Attempt #19 (HarryS)] | 162 | 113 | 126 | 170 | 147
ACCUACCAUUAGUGAUGUUAAUGGACGGAAGGAGCGCGGAUAUCCGCAGGUAGGUCGCCGAAGGCUAGACAUUGUCUAGCCAUUA [AK1.2 SS Arginine A] | 225 | 186 | 196 | 166 | 182
CAAACUCUGACGGCCGCCACUAAUCGUGUAACAGUGAUGUUGUUACAUCAAAGAUGGGUUGCGUGUAGGACCGGGUCGACGCAAA [theeternabot_exclusion_KL_Trp_B_48] | 131 | 120 | 120 | 111 | 124
CUUGUACAAGUGAUGUUUGUUAUAUCCGAAGGAGCGUCGUAAUAGACAGGUAGGUCGCGGAGUAAGAUAGUUUUUUUAAUAUCAU [JR_Nu_SSArginiA_Sub029] | 435 | 338 | 556 | 462 | 288
UUUAUAAGGUCGGCCGCCACUGGAUUUAUGUUUGUUUCGUCUGGAUCAAAGUGAUGUUUUGAGUCCAGGACCGGGACAUUUGUUA [whbob_Ex_Tryp_B_w39] | 86.6 | 76.5 | 79.3 | 75.6 | 90.5
AUUUUGGUUUAGAGUGAUGUUCCUUGUAUUCGAGGACCGGUACGGCCGCCACUCGAAUAGAAAAGAAAAGAAAUGUUUGAUUUUU [BDazzled - #7 SS Tryptophan A] | 406 | 211 | 556 | 351 | 361
GCAGUGAUGUUGCGCAGGUACAGUGGAGUGCGAGGACCGGUACGGCCGCCACUCGUACAGAACUAGCUAAUGUAUGGAUAGGUGA [#11 K4 Tryptophan A Same State] | 354 | 329 | 368 | 470 | 312
CCAUUCAUCAGAAGGAGCGUCAAGUGAUGCUAUCCAGUGAUGUUGGAUAGCACGGAACAGUGACAGGUAGGUCGCUGAUGAGAGC [Arg B SS t8] | 121 | 106 | 115 | 95.7 | 131
UUGUUUGGUUGAGAGGUUGGGCGAGAUGAUACCAGUAGAGAAGAGUACCCUUGGCAGCAUAAGAAAGAUAUAGUGAUGUUGUAUA [SSTheophA.P] | 422 | 362 | 546 | 566 | 396
GCAGUGAUGUUGCAACCGCGUACGAUGCCUCGAGGACCGGUACGGCCGCCACUCGUCCUGGUUCAGGAGCUACAGACAUAGCUCA [theeternabot_sameState_KL_Trp_A_2] | 563 | 271 | 781 | 408 | 291
ACCAUCAAAGAUGGCCAGGACUCAACUGAUACCAGAGUGAAAACACUCCCUUGGCAGCAGGUGAGUGAUGUUCACGAGUCCUGGA [Omel KL Theo A SS B v7] | 117 | 82 | 215 | 168 | 147
UAGCGGGCGAUUCGACGUGCGUCCAGUCAUCGAGGACCGGUACGGCCGCCACUCGCCGGAGUGAUGUUCCGGUACGUCAUAUAAU [theeternabot_sameState_KL_Trp_A_35] | 406 | 358 | 398 | 422 | 197
GCCGUAGAUGGAAGGAGCGUGUCAAAGUGAUGUUUUGAUUAACUCCCUACGGGAUAGAUGACACAGGUAGGUCGCCAUCUACGGC | 65.2 | 79.3 | 86.9 | 115 | 65.3
UGUAUGUGAUUUGAUACCAGACCAGGUGGAGGAAUCUGAGUGAUGUUCAGGUAGGUUUGGGUCCCUUGGCAGCAAAUCGCAUACU [KL-SSTheoB18] | 173 | 136 | 149 | 176 | 158
ACUUGCACAAAGUCGUCAACCGGUGAAUCAAAGGAUAUUAAUUCACUAAGAAGGUUGAGCCGAGUGAUGUUCGACUGUAAGUCCC [theeternabot_exclusion_KL_FMN_A_34] | 415 | 382 | 551 | 506 | 348
